# Data as given in publication PMC9569855 (2022).
# B1: Bamlanivimab (antibody, V domains shown)
# VH: QVQLVQSGAEVKKPGSSVKVSCKASGGTFSNYAISWVRQAPGQGLEWMGRIIPILGIANYAQKFQGRVTITADKSTSTAYMELSSLRSEDTAVYYCARGYYEARHYYYYYAMDVWGQGTAVTVSS
# VL: not shown
# Molecular target: SARS-CoV-2 wild type RBD (319-541aa) (SARS-CoV-2, UniProt P0DTC2 319-541)
# Assay: SPR
binder,measurement,value
B1,koff,0.0014 s⁻¹
